The values below are quoted from earlier work in PMC8215388.

pKd: −log10 of the molar value.

The target of the series is DnaK (Escherichia coli) (UniProt P0A6Y8). The experiment in a line: analytical ultracentrifugation and cross-linking.

Chain of DnaK (P0A6Y8 2-638): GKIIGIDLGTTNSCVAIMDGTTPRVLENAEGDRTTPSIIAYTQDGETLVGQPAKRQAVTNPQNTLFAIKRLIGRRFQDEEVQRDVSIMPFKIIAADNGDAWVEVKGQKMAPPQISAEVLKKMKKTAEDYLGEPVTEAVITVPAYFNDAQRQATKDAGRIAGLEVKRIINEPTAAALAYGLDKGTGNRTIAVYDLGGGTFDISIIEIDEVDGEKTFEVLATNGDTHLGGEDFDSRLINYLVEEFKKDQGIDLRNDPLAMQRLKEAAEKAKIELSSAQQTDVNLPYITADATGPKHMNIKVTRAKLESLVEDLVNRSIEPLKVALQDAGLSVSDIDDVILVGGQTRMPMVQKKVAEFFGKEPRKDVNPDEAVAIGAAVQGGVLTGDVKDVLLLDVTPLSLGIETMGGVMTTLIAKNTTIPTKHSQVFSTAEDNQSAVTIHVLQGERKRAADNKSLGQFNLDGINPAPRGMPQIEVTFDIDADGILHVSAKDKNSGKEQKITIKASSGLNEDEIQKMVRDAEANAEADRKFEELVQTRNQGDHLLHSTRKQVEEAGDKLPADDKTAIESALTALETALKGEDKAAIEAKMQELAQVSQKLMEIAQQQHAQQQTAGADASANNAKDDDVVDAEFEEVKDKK

DnaK (from UniProt P0A6Y8): the negative logarithm of the Kd (pKd) – broadly, −log10 of the Kd, conventionally taken in molar units – is 3.70.
